Target: the molecule itself
Experiment: SEC; Superdex-75 PC 3.2/30, calibrated with mass standards; 20 mM Na-phosphate pH 7.8, no GdnHCl; protein 0.1-0.2 mg/ml; monomer to dimer

B1: recombinant bovine odorant-binding protein (natural protein)
chain: AQEEEAEQNLSELSGPWRTVYIGSTNPEKIQENGPFRTYFRELVFDDEKGTVDFYFSVKRDGKWKNVHVKATKQDDGTYVADYEGQNVFKIVSLSRTHLVAHNINVDKHGQTTELTELFVKLNVEDEDLEKFWKLTEDKGIDKKNVVNFLENEDHPHPE
notes: PDB 1OBP is the cited crystal structure of the native tissue-extracted bOBP dimer (domain-swapped); also called bOBP; recombinant bOBP; source: E. coli BL21(DE3), plasmid pT7-7-bOBP, purified (Ni-agarose, HisGraviTrap)
**Q.** For B1, which “stoichiometry N” value is on record?
**A.** Its value is 2.
